Data from patent US20160304610A1 (JOUNCE THERAPEUTICS, published 2016).

Target: T1, mouse ICOS, full length, on cells (mouse, UniProt Q9WVS0 21-200)
T1 construct: also called CHO-mICOS; mouse ICOS+ CHO cells
T1 sequence: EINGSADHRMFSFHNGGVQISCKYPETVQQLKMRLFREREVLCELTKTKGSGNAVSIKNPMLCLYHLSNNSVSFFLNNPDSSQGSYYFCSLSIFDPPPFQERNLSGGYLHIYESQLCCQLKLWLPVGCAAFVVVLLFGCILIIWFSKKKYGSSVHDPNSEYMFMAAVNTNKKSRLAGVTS
Test: receptor availability assay, flow cytometry on mouse blood T cells after 2.5 mg/kg i.p.
Protocol: ICOS target engagement may also be assessed as measured by receptor availability assay, for example, as follows. Naive mice were i.p. injected with either the isotype control mIgG2a at 2.5 mg/kg or […] with a mouse IgG2a at 2.5 mg/kg. At various time-points post-injection, blood was collected in EDTA coated microtubes via submandibular draw.
Whole blood was Fc blocked using mouse TruStain (BioLegend) for 5 minutes on ice. Following incubation, 100 μl of 2× concentrated extracellular staining antibody mixture was added to each sample for 30 minutes at 4° C. Samples were spun down and fixed and permeabilized in Foxp3 staining buffer (eBioSciences) for 30 minutes at 4° C. Samples were then spun down and resuspended in intracellular antibody stain for 30 minutes at 4° C. Samples were spun down and resuspended in 0.1% PFA. Samples were analyzed on a BD LSRII Fortessa. Tregs were identified as live CD45+ CD3+ CD4+ FoxP3+. Teff cells were identified as live CD45+ CD3+ CD4+ FoxP3−. CD8+ cells were identified as live CD45+ CD3+ CD8+. Fluorescently labeled 37A10S713-mG2a (DyLight 650 conjugated) was used as the staining reagent for ICOS. Receptor availability at each time point was determined using the following formula: […]

- binding result: binds
B1: 37A10S713-mG2a (antibody, V domains shown)
VH: EVQLVESGGGLVQPGGSLRLSCAASGFTFSDYWMDWVRQAPGKGLVWVSNIDEDGSITEYSPFVKGRFTISRDNAKNTLYLQMNSLRAEDTAVYYCTRWGRFGFDSWGQGTLVTVSS
VL: DIVMTQSPDSLAVSLGERATINCKSSQSLLSGSFNYLTWYQQKPGQPPKLLIFYASTRHTGVPDRFSGSGSGTDFTLTISSLQAEDVAVYYCHHHYNAPPTFGPGTKVDIK
notes: 37A10S713 VH and VL with a mouse IgG2a; also called 37A10S713 with a mouse IgG2a; 37A10S713-mIgG2a
